Data: patent US20120316107A1 (CASE WESTERN RESERVE UNIVERSITY, published 2012)
Numbering of substitutions follows the chain as printed. Values belong to the binder of their own block, whether it stands above or below them. Where no end group is shown, it is not given here.

Assays:
[1] = molecular target: T1, Insulin-like Growth Factor receptor (UniProt P08069 31-1367, limits assumed); experiment: competitive displacement of 125I-IGF-1 from IGFR
T1 construct: Captured on antibody-coated microtiter plates; the construct is not described; also called IGFR; IGF Type I receptor

[2] = molecular target: T1, Insulin-like Growth Factor receptor; experiment: competitive displacement of labelled ligand, receptor captured on anti-FLAG IgG plate, two-site sequential model
Method: DNA for transfection was prepared according to the method of Mynarcik et al. (J. Biol. Chem., 1997, 272, pp 18650-18655). The receptor cDNAs were expressed transiently in PEAK rapid cells using polyethyleneimine. Cells were harvested by lysis in 0.15M NaCl and 0.1M Tris (pH 8) containing 1% (v/v) Triton X-100 and protease inhibitor cocktail three days post-transfection. Lysates were stored at −80° C. until assay. Receptor-binding assays were performed as described by Mynarcik. Microtiter strip plates (Nunc Maxisorb) were incubated overnight at 4° C. with anti-FLAG IgG ([…] in PBS). Washing, blocking, receptor binding and competitive binding assays with labeled and unlabeled peptides were performed as described.

- Kd [1]: 0.0276 µM
- Kd [2]: 0.0276 µM
B1: single chain insulin (SCI) that is wild type at position B10 (His^A8, Asp^B28, Pro^B29) (ligand)
chain: FVNQHLCGSHLVEALYLVCGERGFFYTDPTGGGPRRGIVEQCCHSICSLYQLENYCN
notes: also called A8-His, B28-Asp, B29-Pro SCI; SCI not containing the Asp^B10 substitution

- Kd [2]: 0.00989 µM
B2: 57 mer single-chain insulin analogue (His^A8, Asp^B10, Asp^B28, Pro^B29; GGGPRR linker) (ligand)
chain: B1 chain with H10D
modifications: ends and bridges not checked; cysteine pairing not given here
notes: also called 57mer single-chain analogue; 57-mer single-chain Analog
